The values below come from publication PMC12494293, “Hexokinase 2 is an RNA-binding protein that regulates mRNA translation independently of glycolysis and induces melanoma cell proliferation”.

The data set addresses T1, HK2 Δ16 (UniProt P52789 17-917, del1-16).
T1 sequence: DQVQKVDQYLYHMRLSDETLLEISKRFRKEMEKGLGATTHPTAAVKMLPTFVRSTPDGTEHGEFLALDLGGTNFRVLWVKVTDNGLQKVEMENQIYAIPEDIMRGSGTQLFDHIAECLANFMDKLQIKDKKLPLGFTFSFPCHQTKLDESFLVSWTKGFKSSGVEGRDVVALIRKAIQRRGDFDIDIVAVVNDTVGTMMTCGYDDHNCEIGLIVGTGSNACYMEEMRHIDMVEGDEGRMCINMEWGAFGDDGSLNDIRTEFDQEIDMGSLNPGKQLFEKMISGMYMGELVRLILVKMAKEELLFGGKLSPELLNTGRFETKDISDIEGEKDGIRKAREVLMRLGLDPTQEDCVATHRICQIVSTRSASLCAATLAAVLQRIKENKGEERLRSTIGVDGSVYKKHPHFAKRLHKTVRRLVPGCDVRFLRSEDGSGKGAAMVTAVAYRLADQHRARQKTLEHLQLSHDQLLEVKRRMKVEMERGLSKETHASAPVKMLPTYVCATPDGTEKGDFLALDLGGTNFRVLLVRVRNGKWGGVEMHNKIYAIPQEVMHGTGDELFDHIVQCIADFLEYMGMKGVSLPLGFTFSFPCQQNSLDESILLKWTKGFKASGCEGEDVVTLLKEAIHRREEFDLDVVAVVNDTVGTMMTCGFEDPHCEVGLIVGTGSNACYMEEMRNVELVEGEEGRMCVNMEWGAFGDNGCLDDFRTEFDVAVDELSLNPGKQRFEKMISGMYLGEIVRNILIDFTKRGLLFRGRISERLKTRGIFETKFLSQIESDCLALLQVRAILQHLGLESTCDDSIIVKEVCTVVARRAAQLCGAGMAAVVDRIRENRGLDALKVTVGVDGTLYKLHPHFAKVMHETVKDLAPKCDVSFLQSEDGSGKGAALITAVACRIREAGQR
Description: competition; 5 µM HK2 Δ16, 25 nM ATTO700 SOX10 SL; almost complete competition; 10 mM Tris-HCl pH 7.5, 1 mM EDTA, 100 mM KCl, 0.1 mM DTT, 5% glycerol, 0.01 mg/mL BSA, 0.125 mg/mL yeast tRNA, 20°C; gel at 4°C. Conditions: protein: recombinant; (pET28b, Ni-NTA); hairpin.

For the molecule AGGACGAGCCCCAGACUGGAGGAGAGGUCC (structured_RNA) [SOX10 SL (unlabeled)], the binding result is “binds”.
